Results on 18 molecules are retold here after patent US20210206856A1 (PANDION OPERATIONS, published 2021).

The target in experiment [1] is T1, mouse MAdCAM expressed on cells (mouse, UniProt Q61826 22-405).
T1 construct: whole, on cells
T1 sequence (looked up): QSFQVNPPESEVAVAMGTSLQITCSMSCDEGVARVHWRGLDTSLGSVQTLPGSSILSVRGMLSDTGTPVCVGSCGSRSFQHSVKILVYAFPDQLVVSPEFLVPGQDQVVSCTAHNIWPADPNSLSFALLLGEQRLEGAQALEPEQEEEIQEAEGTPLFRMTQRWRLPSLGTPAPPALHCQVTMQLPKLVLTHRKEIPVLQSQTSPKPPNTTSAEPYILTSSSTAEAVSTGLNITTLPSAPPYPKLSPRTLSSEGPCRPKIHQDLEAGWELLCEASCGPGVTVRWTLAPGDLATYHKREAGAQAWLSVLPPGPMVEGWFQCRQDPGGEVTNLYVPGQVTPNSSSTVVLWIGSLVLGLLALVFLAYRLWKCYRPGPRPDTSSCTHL
As to the kind of experiment: cell binding.

The target in experiment [2] is T2, human MAdCAM expressed on cells (human, UniProt Q13477 19-382).
T2 construct: whole, on cells; also called MADCAM1
T2 sequence (looked up): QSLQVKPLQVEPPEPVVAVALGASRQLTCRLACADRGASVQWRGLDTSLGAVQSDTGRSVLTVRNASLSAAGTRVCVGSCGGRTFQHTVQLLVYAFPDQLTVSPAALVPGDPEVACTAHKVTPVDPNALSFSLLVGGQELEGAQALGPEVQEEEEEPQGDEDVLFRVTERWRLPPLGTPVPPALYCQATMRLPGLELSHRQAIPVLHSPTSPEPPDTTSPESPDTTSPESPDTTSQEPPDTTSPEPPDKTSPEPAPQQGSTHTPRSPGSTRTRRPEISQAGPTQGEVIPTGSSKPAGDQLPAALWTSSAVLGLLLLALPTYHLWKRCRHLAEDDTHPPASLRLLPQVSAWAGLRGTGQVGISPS
Kind of experiment: cell binding.

B1: MAdCAM Antibody Table 2 Clone 9 (antibody, human IgG1, V domains shown)
VH: QVQLVQSGAEVKKPGASVKVSCKASGYTFTSYYMHWVRQAPGQGLEWMGIINHSGGSTSYAQKFQGRVTMTRDTSTSTVYMELSSLRSEDTAVYYCARPYSGWYFAFDIWGQGTLVTVSS
VL: not shown
B1: in experiment [1], the binding result is on record as “no binding”.

B2: MAdCAM Antibody Table 2 Clone 18 (antibody, human IgG1, V domains shown)
VH: QVQLVQSGAEVKKPGSSVKVSCKASGYTFTNYYMHWVRQAPGQGLEWMGGIIPIVDRVKYAQKFQGRVTITADESTSTAYMELSSLRSEDTAVYYCAKGRYTVNYYYGMDVWGQGTTVTVSS
VL: DIQMTQSPSSLSASVGDRVTITCQANQDISNYLNWYQQKPGKAPKLLIYRASKLEAGVPSRFSGSGSGTDFTLTISSLQPEDFATYYCQQSSEIPYSFGQGTKLEIK
Regarding B2, the binding result was “no binding” in experiment [1] and “binds” in experiment [2].

B3: MAdCAM Antibody Table 2 Clone 1 (antibody, human IgG1, V domains shown)
VH: EVQLLESGGGLVQPGGSLRLSCAASGFTFSSYGMHWVRQAPGKGLEWVAVISDDGSDKYYADSVKGRFTISRDNSKNTLYLQMNSLRAEDTAVYYCTTSKYYYYYGMDVWGQGTTVTVSS
VL: DIQMTQSPSSLSASVGDRVTITCQASQDISKSLNWYQQKPGKAPKLLIYAASSLQSGVPSRFSGSGSGTDFTLTISSLQPEDFATYYCQQGYSTPLTFGGGTKVEIK
For the molecule B3, the binding result in experiment [1] and in experiment [2] was “binds” each time.

B4: MAdCAM Antibody Table 2 Clone 11 (antibody, human IgG1, V domains shown)
VH: EVQLLESGGGLVQPGGSLRLSCAASGFTFSDYYMNWVRQAPGKGLEWVSVIGESGGSTYYADSVKGRFTISRDNSKNTLYLQMNSLRAEDTAVYYCAADPVSRWPKHGGGDYWGQGTLVTVSS
VL: DIQMTQSPSSLSASVGDRVTITCRASQGISSSLAWYQQKPGKAPKLLIYAASTLQSGVPSRFSGSGSGTDFTLTISSLQPEDFATYYCQQSYSTPWTFGQGTKVEIK
On to B4, for which the binding result in experiment [1] and in experiment [2] was “binds” throughout.

B5: MAdCAM Antibody Table 2 Clone 16 (antibody, human IgG1, V domains shown)
VH: EVQLLESGGGLVQPGGSLRLSCAASGFTFDDYAMHWVRQAPGKGLEWVSYIDASGTTIYYADSVKGRFTISRDNSKNTLYLQMNSLRAEDTAVYYCAKDQAAAGYWYFDLWGRGTLVTVSS
VL: DIQMTQSPSSLSASVGDRVTITCQASQDISNYLNWYQQKPGKAPKLLIYKASTLESGVPSRFSGSGSGTDFTLTISSLQPEDFATYYCQQSYSTPITFGQGTRLEIK
B5: the values for the binding result in experiment [1] and in experiment [2] were “no binding” and “binds”, respectively.

B6: MAdCAM Antibody Table 2 Clone 32 (antibody, human IgG1, V domains shown)
VH: QVQLVQSGAEVKKPGASVKVSCKASGYTLTTWYMYWVRQAPGQGLEWMGWINPNRGATNYAQKFQGRVTMTRDTSTSTVYMELSSLRSEDTAVYYCAKGDLWGAMDVWGQGTLVTVSS
VL: DIQMTQSPSSLSASVGDRVTITCRASDNIGSWLAWYQQKPGKAPKLLIYAASSLQSGVPSRFSGSGSGTDFTLTISSLQPEDFATYYCQQGYSTPPTFGQGTKVEIK
Turning to B6, in experiment [1], the binding result is “no binding”.

B7: MAdCAM Antibody Table 2 Clone 8 (antibody, human IgG1, V domains shown)
VH: QVQLVQSGAEVKKPGASVKVSCKASGYTFTGYHIHWVRQAPGQGLEWMGIINPSGGSTIYAQKFQGRVTMTRDTSTSTVYMELSSLRSEDTAVYYCAKDWSSWYLGPFDYWGQGTLVTVSS
VL: DIQMTQSPSSLSASVGDRVTITCRASQNISSSLNWYQQKPGKAPKLLIYAASSLQSGVPSRFSGSGSGTDFTLTISSLQPEDFATYYCQQSYTTPYTFGQGTKVEIK
Regarding B7, the binding result in experiment [1] and in experiment [2] was “binds” each time.

B8: MAdCAM Antibody Table 2 Clone 12 (antibody, human IgG1, V domains shown)
VH: QVQLVQSGAEVKKPGASVKVSCKASGYTLTTWYMYWVRQAPGQGLEWMGWINPNRGATNYAQKFQGRVTMTRDTSTSTVYMELSSLRSEDTAVYYCAKGDLWGAMDVWGQGTLVTVSS
VL: DIQMTQSPSSLSASVGDRVTITCRASDNIGSWLAWYQQKPGKAPKLLIYAASSLQSGVPSRFSGSGSGTDFTLTISSLQPEDFATYYCQQGYSTPPTFGQGTKVEIK
Regarding B8, the values for the binding result in experiment [1] and in experiment [2] were “no binding” and “binds”, respectively.

B9: MAdCAM Antibody Table 2 Clone 25 (antibody, human IgG1, V domains shown)
VH: EVQLLESGGGLVQPGGSLRLSCAASGFTFSNAWMSWVRQAPGKGLEWVSTIVGNGGATYYADSVKGRFTISRDNSKNTLYLQMNSLRAEDTAVYYCARDNPLRWQGMDVWGQGTLVTVSS
VL: DIQMTQSPSSLSASVGDRVTITCRASQDISNYLNWYQQKPGKAPKLLIYAASSLQSGVPSRFSGSGSGTDFTLTISSLQPEDFATYYCQQSYSIPPTFGPGTKVDIK
As for B9, the figures for the binding result in experiment [1] and in experiment [2] were “no binding” and “binds”, respectively.

B10: MAdCAM Antibody Table 2 Clone 33 (antibody, human IgG1, V domains shown)
VH: QVQLVQSGAEVKKPGASVKVSCKASGYTLTTWYMYWVRQAPGQGLEWMGWINPNRGATNYAQKFQGRVTMTRDTSTSTVYMELSSLRSEDTAVYYCAKGDLWGAMDVWGQGTTVTVSS
VL: DIQMTQSPSSLSASVGDRVTITCRASDNIGSWLAWYQQKPGKAPKLLIYAASSLQSGVPSRFSGSGSGTDFTLTISSLQPEDFATYYCQQGYSTPPTFGQGTKVEIK
In the case of B10, the binding result is on record as “no binding” in experiment [1] and “binds” in experiment [2].

B11: MAdCAM Antibody Table 2 Clone 10 (antibody, human IgG1, V domains shown)
VH: EVQLLESGGGLVQPGGSLRLSCAASGFMFGDYAMHWVRQAPGKGLEWVSAISGSGGSTYYADSVKGRFTISRDNSKNTLYLQMNSLRAEDTAVYYCAKDLVVAGIWYFDLWGRGTLVTVSS
VL: DIQMTQSPSSLSASVGDRVTITCRASQGISNNLNWYQQKPGKAPKLLIYDASSLESGVPSRFSGSGSGTDFTLTISSLQPEDFATYYCQQTHSFPSTFGQGTKLEIK
Consider B11, for which the binding result in experiment [1] and in experiment [2] was “binds” each time.

B12: MAdCAM Antibody Table 2 Clone 19 (antibody, human IgG1, V domains shown)
VH: EVQLLESGGGLVQPGGSLRLSCAASGFTFEDYAMHWVRQAPGKGLEWVSYLNSDGGSTSYADSVKGRFTISRDNSKNTLYLQMNSLRAEDTAVYYCAKDYCTNGVCAFDYWGQGTLVTVSS
VL: DIQMTQSPSSLSASVGDRVTITCRASQSISTYLNWYQQKPGKAPKLLIYDASNLETGVPSRFSGSGSGTDFTLTISSLQPEDFATYYCQQSYTIPITFGQGTRLEIK
Turning to B12, the binding result is recorded as “no binding” in experiment [1] and “binds” in experiment [2].

B13: MAdCAM Antibody Table 2 Clone 35 (antibody, human IgG1, V domains shown)
VH: QVQLVQSGAEVKKPGASVKVSCKASGYTFTGYYIHWVRQAPGQGLEWMGWMNPNSGNTGYAQKFQGRVTMTRDTSTSTVYMELSSLRSEDTAVYYCARDPGFLGYSSGGSSYDGWFDPWGQGTLVTVSS
VL: DIQMTQSPSSLSASVGDRVTITCRASQSISSYLHWYQQKPGKAPKLLIYAASSLQSGVPSRFSGSGSGTDFTLTISSLQPEDFATYYCQQSYTAPYTFGQGTKLEIK
Turning to B13, the binding result in experiment [1] was “no binding”.

B14: MAdCAM Antibody Table 2 Clone 15 (antibody, human IgG1, V domains shown)
VH: QVQLVQSGAEVKKPGASVKVSCKASGYTFTGYYMHWVRQAPGQGLEWMGWIGPNSGDTNYAQKFQGRVTMTRDTSTSTVYMELSSLRSEDTAVYYCARDLDHNWYFDLWGRGTLVTVSS
VL: DIVMTQSPLSLPVTPGEPASISCRSSQSLLHSNGYNYLDWYLQKPGQSPQLLIYSSSNRAPGVPDRFSGSGSGTDFTLKISRVEAEDVGVYYCMQALHIPLTFGGGTKVEIK
For B14, the binding result in experiment [1] is on record as “no binding”; in experiment [2], “binds”.

B15: MAdCAM Antibody Table 2 Clone 7 (antibody, human IgG1, V domains shown)
VH: EVQLLESGGGLVQPGGSLRLSCAASGFTFSDYQMSWVRQAPGKGLEWVAIISHADGGFKDYADSVKGRFTISRDNSKNTLYLQMNSLRAEDTAVYYCAKPYSSGWSAVYYFDYWGQGTLVTVSS
VL: DIQMTQSPSSLSASVGDRVTITCRASRGITNDLGWYQQKPGKAPKLLIYAASTLQSGVPSRFSGSGSGTDFTLTISSLQPEDFATYYCQQAYSFPWTFGQGTKVEIK
For the molecule B15, the binding result in experiment [1] and in experiment [2] was “binds” throughout.

B16: MAdCAM Antibody Table 2 Clone 13 (antibody, human IgG1, V domains shown)
VH: QVQLVQSGAEVKKPGASVKVSCKASGYTFTTYYMHWVRQAPGQGLEWMGGFDPEDGETIYAQKFQGRVTMTRDTSTSTVYMELSSLRSEDTAVYYCARHAVAGAVGAGYYYYGMDVWGQGTMVTVSS
VL: DIQMTQSPSSLSASVGDRVTITCRASESISNWLAWYQQKPGKAPKLLIYAASTLQSGVPSRFSGSGSGTDFTLTISSLQPEDFATYYCQQSYSVPFTFGPGTKVDIK
For the molecule B16, the binding result is on record as “no binding” in experiment [1] and “binds” in experiment [2].

B17: MAdCAM Antibody Table 2 Clone 21 (antibody, human IgG1, V domains shown)
VH: EVQLVESGGGLVKPGGSLRLSCAASGFTFSSYWMSWVRQAPGKGLEWVSYISGDSGYTNYAAPVKGRFTISRDDSKNTLYLQMNSLKTEDTAVYYCARANSSGWYDWYFDLWGRGTLVTVSS
VL: not shown
On to B17, for which the binding result in experiment [1] is on record as “no binding”; in experiment [2], “binds”.

B18: MAdCAM Antibody Table 2 Clone 27 (antibody, V domains shown)
VH: EVQLLESGGGLVQPGGSLRLSCAASGFTFSSYQMSWVRQAPGKGLEWVSYISSSSTYTNYADSVKGRFTISRDNSKNTLYLQMNSLRAEDTAVYYCARANSSSWYDWYFDLWGQGTLVTVSS
VL: not shown
As for B18, the binding result in experiment [1] is reported as “no binding”.
